Test results reported in patent publication US20260207779.

Test system: TALE-TadA8e(V106W) (Escherichia coli)
Assay: cell_activity
Details: paired TALE-TadA8e(V106W) without nickase, value is the maximum over three loci

Substance | activity [%] | activity (barely above sequencing error) [%]
MT-ND4 target | < 0.39 | –
MT-ND1 target | < 0.39 | –
MT-RNR2 target | – | < 0.39
